Measurements as given in patent US20220307010A1 (TWIST BIOSCIENCE, published 2022).
Changes are numbered by the printed parent chain.

T1: TIGIT (T cell immunoreceptor with Ig and ITIM domains) (human, UniProt Q495A1 22-141, limits assumed)
T1 construct: also called hTIGIT; human TIGIT
T1 sequence (looked up): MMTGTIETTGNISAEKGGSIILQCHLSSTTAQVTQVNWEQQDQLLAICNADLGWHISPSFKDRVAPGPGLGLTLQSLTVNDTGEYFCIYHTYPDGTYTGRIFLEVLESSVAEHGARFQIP

T2: TIGIT (T cell immunoreceptor with Ig and ITIM domains) (human, UniProt Q495A1 22-141, limits assumed)
T2 construct: also called hTIGIT; human TIGIT
T2 sequence (looked up): T1 sequence (looked up)

B1: TIGIT-211-13 (antibody, V domains shown)
VH: EVQLLESGGGLVQPGGSLRLSCAASGFTFNKYPMMWVRQAPGKGLEWVSYISSSGSSTYYADSVKGRFTISRDNSKNTLYLQMNSLRAEDTAVYYCARVIAAAGAFDYWGQGTLVTVSS
VL: DIQMTQSPSSLSASVGDRVTITCRASQSIREYLHWYQQKPGKAPKLLIYFGSELRKGVPSRFSGSGSGTDFTLTISSLQPEDFATYYCGQGVLWPATFGQGTKVEIK
B2: TIGIT-211-15 (antibody, V domains shown)
VH: EVQLLESGGGLVQPGGSLRLSCAASGFTFSSAAMSWVRQAPGKGLEWVSGISPSGGITTYADSVKGRFTISRDNSKNTLYLQMNSLRAEDTAVYYCASLSRGYWGQGTLVTVSS
VL: DIQMTQSPSSLSASVGDRVTITCQSSQSVYSNNELSWYQQKPGKAPKLLIYGTSYRYSGVPSRFSGSGSGTDFTLTISSLQPEDFATYYCSSWAGSRSGTVFGQGTKVEIK
B3: TIGIT-211-116 (antibody, V domains shown)
VH: EVQLLESGGGLVQPGGSLRLSCAASGFTFSRYFMGWVRQAPGKGLEWVSAISGSGGNTYYADSVKGRFTISRDNSKNTLYLQMNSLRAEDTAVYYCARVWRNHLDYWGQGTLVTVSS
VL: DIQMTQSPSSLSASVGDRVTITCRASQTIERRLNWYQQKPGKAPKLLIYHDNKRPSGVPSRFSGSGSGTDFTLTISSLQPEDFATYYCQQGYTLPWTFGQGTKVEIK
B4: TIGIT-211-98 (antibody, V domains shown)
VH: EVQLLESGGGLVQPGGSLRLSCAASGFTFETYAMSWVRQAPGKGLEWVSVISGSGGRPNYADSVKGRFTISRDNSKNTLYLQMNSLRAEDTAVYYCAREGLWAFDYWGQGTLVTVSS
VL: DIQMTQSPSSLSASVGDRVTITCRASHFIGSLLSWYQQKPGKAPKLLIYETSKLASGVPSRFSGSGSGTDFTLTISSLQPEDFATYYCQQSYSYPRTFGQGTKVEIK
B5: TIGIT-211-77 (antibody, V domains shown)
VH: EVQLLESGGGLVQPGGSLRLSCAASGFTFGNYAMAWVRQAPGKGLEWVSSIWPSGGQTWYADSVKGRFTISRDNSKNTLYLQMNSLRAEDTAVYYCAKGGTSFDYWGQGTLVTVSS
VL: DIQMTQSPSSLSASVGDRVTITCRASQSVRSYLNWYQQKPGKAPKLLIYAASSLYSGVPSRFSGSGSGTDFTLTISSLQPEDFATYYCQQYASVPVTFGQGTKVEIK
B6: TIGIT-211-93 (antibody, V domains shown)
VH: EVQLLESGGGLVQPGGSLRLSCAASGFTFSRYFMGWVRQAPGKGLEWVSEISPSGKKKYYADSVKGRFTISRDNSKNTLYLQMNSLRAEDTAVYYCAKSSFDKYNFDYWGQGTLVTVSS
VL: DIQMTQSPSSLSASVGDRVTITCSASQDINKYLNWYQQKPGKAPKLLIYHTSRLQSGVPSRFSGSGSGTDFTLTISSLQPEDFATYYCQQFAYFPATFGQGTKVEIK
B7: TIGIT-211-95 (antibody, V domains shown)
VH: EVQLLESGGGLVQPGGSLRLSCAASGFTFPKYGMAWVRQAPGKGLEWVSTISSGGGYTYYPDSVKGRFTISRDNSKNTLYLQMNSLRAEDTAVYYCARDTYLHFDYWGQGTLVTVSS
VL: DIQMTQSPSSLSASVGDRVTITCRASQGVRTSLAWYQQKPGKAPKLLIYAKNNRPSGVPSRFSGSGSGTDFTLTISSLQPEDFATYYCQQSYSAPYTFGQGTKVEIK
B8: TIGIT-30-15 VHH-V5-His (VHH)
VHH: EVQLVESGGGLVQAGGSLRLSCAASGFTFSGNWMGWFRQAPGKEREWVSGISSGGGRTYYADSVKGRFTISADNAKNTVYLQMNSLKPEDTAVYYCAADVWYGSTWRNWGQGTQVTVSS
notes: not shown: V5-His tag
B9: TIGIT-29-10 VHH-V5-His (VHH)
VHH: EVQLVESGGGLVQAGGSLRLSCAASGRTFSNYGMGWFRQAPGKEREFVSGISGSGGRTSYADSVKGRFTISADNAKNTVYLQMNSLKPEDTAVYYCAANLWYPVDRLNTGFNYWGQGTQVTVSS
notes: not shown: V5-His tag
B10: TIGIT-30-20 VHH-V5-His (VHH)
VHH: EVQLVESGGGLVQAGGSLRLSCAASGPTFSIYDMGWFRQAPGKEREFVAVINWSRGSTFYADSVKGRFTISADNAKNTVYLQMNSLKPEDTAVYYCAAGVWSSLRHTAANWGQGTQVTVSS
notes: not shown: V5-His tag
B11: TIGIT-30-52 VHH-V5-His (VHH)
VHH: EVQLVESGGGLVQAGGSLRLSCAASGRTFSNYFMGWFRQAPGKERESVATVTWRDNITYYADSVKGRFTISADNAKNTVYLQMNSLKPEDTAVYYCASAGRWGQGTQVTVSS
notes: not shown: V5-His tag
B12: TIGIT-30-30 VHH-V5-His (VHH)
VHH: EVQLVESGGGLVQAGGSLRLSCAASGGTFSGRGMGWFRQAPGKEREWVSSVYIFGGSTYYADSVKGRFTISADNAKNTVYLQMNSLKPEDTAVYYCANSNKPKFDWGQGTQVTVSS
notes: not shown: V5-His tag
B13: TIGIT-29-01 VHH-V5-His (VHH)
VHH: EVQLVESGGGLVQAGGSLRLSCAASGRTFSNYAMGWFRQAPGKEREFVAAITWSGTRTDYADSVKGRFTISADNAKNTVYLQMNSLKPEDTAVYYCAAAAWTIYEYDYWGQGTQVTVSS
notes: not shown: V5-His tag
B14: TIGIT-29-33 VHH-V5-His (VHH)
VHH: B13 VHH with R27F, T28I, N31T, F47L, A49S, W53R, T56I, R57T, D59Y
notes: not shown: V5-His tag
B15: TIGIT-29-30 VHH-V5-His (VHH)
VHH: B13 VHH with R27F, N31S, T102R, I103Y, Y104S
notes: not shown: V5-His tag
B16: TIGIT-29-07 VHH-V5-His (VHH)
VHH: B13 VHH with R27S, T28I, A50T, T52S, W53R, S54G, D59N, E105A, D107N
notes: not shown: V5-His tag
B17: TIGIT-29-12 VHH-V5-His (VHH)
VHH: B13 VHH with R27S, N31S, D59N, E105T, Y108S
notes: not shown: V5-His tag
B18: TIGIT-30-49 VHH-V5-His (VHH)
VHH: EVQLVESGGGLVQAGGSLRLSCAASGNIFSRYIMGWFRQAPGKEREWVAGISNGGTTKYADSVKGRFTISADNAKNTVYLQMNSLKPEDTAVYYCAQGWKIVPTNWGQGTQVTVSS
notes: not shown: V5-His tag
B19: TIGIT-30-43 VHH-V5-His (VHH)
VHH: EVQLVESGGGLVQAGGSLRLSCAASGFTFSTSWMGWFRQAPGKERELVAARNSGGNTNYADSVKGRFTISADNAKNTVYLQMNSLKPEDTAVYYCAADVWYGSTWRNWGQGTQVTVSS
notes: not shown: V5-His tag
B20: TIGIT-30-01 VHH-V5-His (VHH)
VHH: B19 VHH with T28A, T31S, S32Y
notes: not shown: V5-His tag
B21: TIGIT-30-40 VHH-V5-His (VHH)
VHH: B19 VHH with T31G, S32N, L47W, A49V, A50G, R51I, N52S, N56S, N58H
notes: not shown: V5-His tag
B22: TIGIT-29-06 VHH-V5-His (VHH)
VHH: EVQLVESGGGLVQAGGSLRLSCAASGGTFRSYVMGWFRQAPGKEREWVATINSSGSRTYYADSVKGRFTISADNAKNTVYLQMNSLKPEDTAVYYCAARPNYRDYEYWGQGTQVTVSS
notes: not shown: V5-His tag
B23: TIGIT-29-18 VHH-V5-His (VHH)
VHH: EVQLVESGGGLVQAGGSLRLSCAASGSTFSNYAMGWFRQAPGKEREFVSAINSSGSRTYYADSVKGRFTISADNAKNTVYLQMNSLKPEDTAVYYCAARLWGTWTAGDYDYWGQGTQVTVSS
notes: not shown: V5-His tag
B24: TIGIT-29-34 VHH-V5-His (VHH)
VHH: B23 VHH with S27F, S30R, A50S, N52S, G55S, Y59S
notes: not shown: V5-His tag
B25: TIGIT-29-22 VHH-V5-His (VHH)
VHH: B23 VHH with T28I, F29L, N31S, A33T, A50T, N52S, S53R, G55S, S56T
notes: not shown: V5-His tag

Each binder was assayed against T1, TIGIT (T cell immunoreceptor with Ig …) (assay: ELISA).

ELISA	Binder
15	B1
11.3	B2

Each binder was assayed against T1, TIGIT (T cell immunoreceptor with Ig …) (assay: SPR kinetics).

Kd	koff	kon	Binder
269000 nM	0.105 s⁻¹	389 M⁻¹ s⁻¹	B3
221 nM	0.326 s⁻¹	1.48e+06 M⁻¹ s⁻¹	B1
301 nM	0.00712 s⁻¹	23600 M⁻¹ s⁻¹	B2
574000 nM	0.098 s⁻¹	171 M⁻¹ s⁻¹	B4
683 nM	0.0417 s⁻¹	61000 M⁻¹ s⁻¹	B5
1240 nM	0.0281 s⁻¹	22700 M⁻¹ s⁻¹	B6
355 nM	0.0756 s⁻¹	213000 M⁻¹ s⁻¹	B7

These binders were tested against T2, TIGIT (T cell immunoreceptor with Ig …) (assay: SPR, VHH-V5-His).

koff	kon	Kd	Binder
0.004 s⁻¹	20000 M⁻¹ s⁻¹		B8
0.003 s⁻¹	10000 M⁻¹ s⁻¹		B9
0.002 s⁻¹	10000 M⁻¹ s⁻¹		B10
0.1 s⁻¹	30000 M⁻¹ s⁻¹	4240 nM	B11
0.006 s⁻¹	10000 M⁻¹ s⁻¹	387 nM	B12
0.01 s⁻¹	30000 M⁻¹ s⁻¹		B13
0.04 s⁻¹	20000 M⁻¹ s⁻¹	1520 nM	B14
0.08 s⁻¹	300000 M⁻¹ s⁻¹		B15
0.004 s⁻¹	8000 M⁻¹ s⁻¹		B16
0.1 s⁻¹	10000 M⁻¹ s⁻¹		B17
0.08 s⁻¹	90000 M⁻¹ s⁻¹		B18
0.008 s⁻¹	70000 M⁻¹ s⁻¹		B19
0.08 s⁻¹	10000 M⁻¹ s⁻¹		B20
0.006 s⁻¹	30000 M⁻¹ s⁻¹		B21
0.02 s⁻¹		433000 nM	B22
0.007 s⁻¹	20000 M⁻¹ s⁻¹		B23
0.03 s⁻¹	30000 M⁻¹ s⁻¹		B24
0.003 s⁻¹	6000 M⁻¹ s⁻¹		B25
